# Assay results published in US20030087407A1.
# B1: inhibitor of Aβ fibrillogenesis peptide (iAβ) (peptide)
# chain: RDLPFFPVPID
# Experiments:
# [1] = target: amyloid β-peptide 1-40 (Aβ1-40) (UniProt P05067); test: cell-based or functional assay
# [2] = target: amyloid β-peptide 1-40 (Aβ1-40) (UniProt P05067); test: quenching of intrinsic Tyr10 fluorescence of Aβ1-40 in solution by added iAβ, non-linear regression to a rectangular hyperbola
# [3] = target: amyloid β-peptide 1-40 (Aβ1-40) (UniProt P05067); test: quenching of intrinsic Tyr10 fluorescence of Aβ1-40 in solution at approximately 4 µM iAβ
# [4] = target: amyloid β-peptide 1-42 (Aβ1-42) (UniProt P05067); test: cell-based or functional assay
binder,measurement,setting,value
B1,"% of amyloid remaining, ThT fluorometric assay, 10-fold molar excess of peptide, 2 days",[1],25.5 % of amyloid
same,"amyloid formation, thioflavine T fluorometric assay, 24 h, 5-fold molar excess of iAβ (% of amyloid detectable in the absence of inhibitor)",[1],33.9%
same,"amyloid formation, thioflavine T fluorometric assay, 24 h, 20-fold molar excess of iAβ (% of amyloid detectable in the absence of inhibitor)",[1],13.7%
same,Kd,[2],75.9 nM
same,maximum quenching of the total fluorescence,[3],12.6%
same,"% of amyloid remaining, ThT fluorometric assay, 10-fold molar excess of peptide, 2 days",[4],57.9 % of amyloid
same,"inhibition of amyloid formation, thioflavine T fluorometric assay, 24 h, 5-fold molar excess of iAβ (% of inhibition)",[4],28.7
same,"inhibition of amyloid formation, thioflavine T fluorometric assay, 24 h, 20-fold molar excess of iAβ (% of inhibition)",[4],72.3
same,"inhibition of amyloid formation, thioflavine T fluorometric assay, 24 h, 40-fold molar excess of iAβ (% of inhibition)",[4],80.6
same,"reduction of preformed fibrils, thioflavine T fluorometric assay, 24 h, 40-fold molar excess of iAβ (% fibril reduction)",[4],51
